The text below walks through data of publication PMC2764551.

In the test the target is fluorescein-labeled UBE2D2 (WT) (human), P62837. The experiment in a line: fluorescence polarisation. The conditions noted are these: remark: other sources report otherwise.
fluorescein-labeled UBE2D2 (WT) (human), P62837, sequence (P62837 whole entry): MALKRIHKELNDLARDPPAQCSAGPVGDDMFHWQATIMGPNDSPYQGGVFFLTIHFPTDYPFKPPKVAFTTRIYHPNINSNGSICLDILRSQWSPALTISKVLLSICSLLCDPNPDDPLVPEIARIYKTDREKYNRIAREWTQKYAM

B1: IpaH1.4 C-terminal domain, residues 265-575, A0A0H2USG1 265-575 (domain or fragment)
chain: GPQIFFSMGNSATISAPEHSLADAVTAWFPENKQSDVSQIWHAFEHEEHANTFSAFLDRLSDTVSARNTSGFREQVAAWLEKLSASAELRQQSFAVAADATESCEDRVALTWNNLRKTLLVHQASEGLFDNDTGALLSLGREMFRLEILEDIARDKVRTLHFVDEIEVYLAFQTMLAEKLQLSTAVKEMRFYGVSGVTANDLRTAEAMVRSREENEFTDWFSLWGPWHAVLKRTEADRWAQAEEQKYEMLENEYSQRVADRLKASGLSGDADAEREAGAQVMRETEQQIYRQLTDEVLALRLSENGSNHIA
What is called Kd is the constant that tells how readily two partners part at equilibrium. Low values mean higher affinity, high ones lower affinity. For B1, the Kd was determined as 317 µM.
